assay: soluble on expression in E. coli; label from the status in PepcDB or PDB records

Row | Sequence | soluble on expression in E. coli
1 | MSLAAEGKAIAKVNDLVIFVPYVVPGDVVDLQIKRKKNKYAEAEAVKFHELSPVRAVPFCQHYGVCGGCKWQVLPYSEQIRYKQKQVEDNLRRIGKIELPEISPILGSAKTEFYRNKLEFTFSNKRWLTNDEVRQDVKYDQMNAVGFHIPGAFDKVLAIEKCWLQDDISNRIRNAVRDYAYEHDYSFINLRTQEGMLRNLIIRTSSTGELMVIVICKITEDHEMELFKQLLQFIADSFPEITSLLYIINNKCNDTINDLDVHVFKGKDHMFEEMEGLRFKVGPKSFYQTNSEQAYNLYKIAREFAGLTGKELVYDLYTGTGTIANFVSRQARQVIGIEYVPEAIEDAKVNAEINEIKNALFYAGDMKDMLTQEFINQHGRPDVIITDPPRAGMHQDVVDVILFAEPKRIVYVSCNPATQARDLQLLDGKYKVKAVQPVDMFPHTHHVENVVLLELREGHHHHHH | soluble
2 | MSLTYDLLITDSHVITPKGMVEKNIVVENGKIELITNDSPDCDKKINGSGLVSIPGLIDPHVHYGVYSPIDQAAISESHAAAIGGVTTMIRMFRLKGSYKESLNKHLLASQNSHYIDYTLHASIFDDSQISEMQYCAENKIISFKIYMNLGGDVGHVYMEMNPGEEKLIAAEVNVTNELVEKIVKNAASLKCPVLVHAEDYQECSCGMKTEKEKNHDGLNAWSESRSPNFEAKSIQIICEYGRKYDCQIYFVHIGSKLALDKIKEEKKKGTKIFVETCPHYLTLSHETQTGYLAKVMPPIRTNNDVQSVWNALQNNEIDTIGTDHVANQLKLKLGGDDVWGALAGFPGIGTSLPILLSEGINKNRINLNQLANLTSTNSAKIFGLSGKGSLEKGYDADITMIDLKKEEKVSPELFGGFSDYLVYDGWNLKGWPVKTIVRGTVVAEDFEVIGKPGYGNFVPRKLSEGHHHHHH | not soluble
3 | MAFSIMGILTIMEFLVYRDTRMKYEYEVDKDFTSKIRLNIDITVAMKCQYVGADVLDLAETMVTSAQGLAYQPVSLCSRTISNTSCGVSGKLWIQSTENVKVVTDAVSLVPNRLNSCSAGDI | not soluble
4 | MAEETQTVETVEEQVVPEAKQPQDEKKYTDADVDAIIDKKFAKWKSEQEAEKSEAKKMAKMNEKEKADYEKQKLLDELQELKNDKTRNELTAVARQMFAESEINVNDDVLGLVVTLDAEQTKANVTTLANAFAKVIADDRKALVRQTTPSTGGGLSKQTNYGANLASKAAQQSTKLF | not soluble
5 | MSLIHPHIADALKVPDLVRLNDDLVLIRFESMKIYSALAAVRHLLERGTIRPGQTLIDSSSGIYAYALALACHRYGMRCHVVASTTVDTTTRAQLEILGATVEQVRPSRNLKLDQELRVRRVREILADHPDWHWMRQYHDDVHYLGYQEVADRITTAFPSTPLTVVGGVGSGASTGGLVERLRATDPSVRLVGVQPFGSVTFGSQAHHDPEAIIAGIGSSIVFDNVRHHLYDAVHWLDFTHAMSGTIALLRERAVFAGLSTGAGYLAATYEARRHPDRLHLVIGADTGHRYVERVFARHTEALDPAPLKPVEVSAPEEMSMPWSRMAWRRTAEGHHHHHH | soluble
6 | MSLDTSRRRRLARRSIAASFRLFLTVAKGLGVLDYRIDGAEILHQERGCLVVANHPTLIDYVLLASVMPETDCLVKSALLKNPFLGGVVRATDYLINSEAETLLPRCQQRLAQGDTILIFPEGTRTKPGEKMTLQRGAANIAVRCASDLRIVTIGCSEHLLDKQSKWYDVPPDRPFFTVAVHGRVEINKFYDATSQEPALAARQLNRHLLLQLQQGCLPLSGINNASALSGNEGHHHHHH | not soluble
7 | MANYYEVLGVQASASPEDIKKAYRKLALRWHPDKNPDNKEEAEKKFKLVSEAYEVLSDSKKRSLYDRAGCDSWRAGGGA | soluble
8 | MNTELQPKLEKSAVNFQAKPRKQKIRKDPNAPFIREKLELPDGHNKLLLHSCCAPCSGEVMEAILASGIEFTIYFYNPNIHPLKEYLIRKEENIRFAKKFGIPFIDADYDRQNWFDRAKGMEWEPERGIRCTMCFDMRFEKAAEYAHKHGFPVFTSCLGISRWKDMNQINGCGHRAAEKYDDVIYWDYNWRKEGGSQRMIEISKRERFYQQEYCGCVYSLRDSNKWREETGRQKIEIGKLYYSAD | not soluble
9 | MTAEVMSHVTAHFGKTLEECREESGLSVDILDEFKHFWSDDFDVVHRELGCAIICMSNKFSLMDDDVRMHHVNMDEYIKSFPNGQVLAEKMVKLIHNCEKQFDTETDDCTRVVKVAACFKEDSRKEGIAPEVAMVEAVIEKY | soluble
10 | FSNKRVLVEKEGEAGIAVMKFKNPPVNSLSLEFLTEFVISLEKLENDKSIRGVILTSERPGIFSAGLDLMEMYGRNPAHYAEYWKAVQELWLRLYLSNLTLISAINGASPAGGCLMALTCDYRIMADNSKYTIGLNESLLGIVAPFWLKDNYVNTIGHRAAERALQLGTLFPPAEALKVGLVDEVVPEDQVHSKARSVMAKWFTIPDHSRQLTKSMMRKATADNLIKQREADIQNFTSFISRDSIQKSLHVYLEKLKQKKG | soluble
11 | MGHHHHHHSHMTTNSLLIIDFEFTMPDGKYSPQNFFPEIIEAGIVKSIDDEVVETFSSYVRPKKFPKLTKRCKSFLKITQKQVDEGMRFEDFIRKLNELDPEKNSTIITWGNMDMKVLKQNCMFNHIPFPFKGEMRDLSLEYKNFFGDRTLTGLWKAAEEYGDSGTGTHHKALDDALTAYKLFKLVEQDKQYLEKPKPPTIGERIDLTELLKRAT | soluble
12 | MIVLIDNYDSFTYNLYQLLGEYEEEIVVVRNDQITIEQLEEMNPKGIVLSPGPGKPEEAGICIEVIRHFYKNVPILGICLGHQAIISAFGGEIVRAERIKHGKTSRAKHNGTSIFSYVTQPLTAMRYHSLVAAQTSLPQCFDILATAMDDGEIMAVRHNYYPLFGLQFHPESIATEEGGKLIRAFLGEVKEEERV | not soluble
13 | MAHHHHHHMHVSSAAYTRAYEWQRALNSCTGDFSSSLARCLPLRALCRRPNNVPRTLTHTSKHPHPLLLSHPRLPLSHAARTRAPPPSRCSRSTLMSVPYEEKAFPPL | not soluble
14 | MGSRENLYFQGLEHHHHHHHMGHETKAQLKDYVEVKIMKIKTTVAALSVLSVLSFGAFAADSIDAAQAQNREAIGTVSVSGVASSPMDMREMLNKKAEEKGATAYQITEARSGDTWHATAELYK | soluble
15 | MATRLLRTNFIRRSYRLPAFSPVGPPTVTASTAVVPEILSFGQQAPEPPLHHPKPTEQSHDGLDLSDQARLFSSIPTSDLLRSTAVLHAAAIGPMVDLGTWVMSSKLMDASVTRGMVLGLVKSTFYDHFCAGEDADAAAERVRSVYEATGLKGMLVYGVEHADDAVSCDDNMQQFIRTIEAAKSLPTSHFSSVVVKITAICPISLLKRVSDLLRWEYKSPNFKLSWKLKSFPVFSESSPLYHTNSEPEPLTAEEERELEAAHGRIQEICRKCQESNVPLLIDAEDTILQPAIDYMAYSSAIMFNADKDRPIVYNTIQAYLRDAGERLHLAVQNAEKENVPMGFKLVRGAYMSSEASLADSLGCKSPVHDTIQDTHSCYNDCMTFLMEKASNGSGFGVVLATHNADSGRLASRKASDLGIDKQNGKIEFAQLYGMSDALSFGLKRAGFNVSKYMPFGPVATAIPYLLRRAYENRGMMATGAHDRQLMRMELKRRLIAGIA | not soluble
16 | MSDPSAKPLQEHILIILDDAGRREVLLTETFYTIGRSPRADIRIKSQFVSRIHAVLVRKSSDDVQAAYRIIDGDEDGQSSVNGLMINGKKVQEHIIQTGDEIVMGPQVSVRYEYRRRDQFGTMLEHHHHHH | soluble
17 | MALKKAMLLIKNGKILTMTGVNYDSGSVLIDNGKIIKVGENIDVDESCEIIDADGFWVMPGIIEAHCHVGIQEEKRGFEGNDCNEMTNPVTPYLRALDGINPMDSAFYTALTAGITGIMVGPGSANVVGGQWMFLKTYGRAIDKMVVLQPSAMKIAFGENPKANYDKKNMMPSTRIAIAAMLREELFEAQQYYEKRKNAEKSGDSFNKEFRKECWVPVFDKKIPLKAHVHRADDILTAIRIAKEFNLNLTLDHCTEGHLVAKEIKESGFPAIVGPTLTSRNKIETQYADFKTAGILHNEGVKVAITTNHPVTRIQDLLICAGLAAKEGLGIEEGLKAITINPAEICNVANRVGSIEVNKDADIAIFDGNPMETFTKTMYTIINGEIVYSLKDKNYEGHHHHHH | soluble
18 | MTKAKDLTGKKIAILAADGVEEIELTSPRAAIEAAGGTTELISLEPGEIQSMKGDIEPQEKYRVDHVVSEVQVSDYDGLLLPGGTVNPDKLRLEEGAMKFVRDMYDAGKPIAAICHGPWSLSETGIAQGLKMTSWSSLKRELTLAGAQWVDEECVTDKGVVTSRKPDDLPAFNKKIVEEFAEGDHSSRRK | soluble
19 | MGGWSNFKFLFLSPGGELYGVLNDKIYKGTPPTHDNDNWLGRAKKIGDGGWNQFQFLFFDPNGYLYAVSKDKLYKAPPPQSDTDNWIARATEIGSGG | soluble
20 | MRIGPELLQDLLDRVEGSLAAAIGTADGLLVEGVRKRPLDLEAAIAEHAALWRQARAAYARSLGAEEVGELLVGGTGVVGYLRSMRTRDPEPLFLLLLLTPEANLGQARLAARRLLDRAGGVVAWPT | soluble
21 | MGSDKIHHHHHHMFVRVDISSLPLGKRMAQDIYDFDGHLLISKGIVVQESHLQQLRQRGYEYVYIQEEDEVNENSLNQGIAYLTDKQLPKAFSASVEGMRQMMDKVSSRHMIKLGEVEECIDLVYDHVLQTYNVLKHLQDLRNKDEYTLQHSVSVGILSIKIGQSLGLDADKLKNLGIAGLLHDIGKSMISLDIINKPGPLDDKEFKEIKKHPVYGYQIVNEIKLEDQDIPQAVLQHHEHQDGNGYPLGIRGDRINSFARIIAVADVFDALTSDRAYRPRMSLLQAVDIIIKSSCGQLDPLASRRLLSYVLDITTGEKVILSTGEEATVILKNEVDPARPLVRIGDNFLDLKTNRDVFIKDFAR | not soluble
22 | MSLKVVSVDTLCCDAGWRNYHFVKLTTDEGIVGWSEFDEGFGSPGVTAVIEQLGKRLVGASVMEHERFFAEAYCLTRPATGGVVSEGIGAIENALLDAKAKTLNVPCYELLGGKLRDRVPVYWSHCPTWRINHPKFFGPPVTDLDGVKRTAEEARERQFRAIKTNIFIHDDGPLHAWRPGFAVPFQPALNVDRKVLRNLRAHLEALRDGAGPDVEILLDLNFNAKPEGYLKILRELADFDLFWVEIDSYSPQGLAYVRNHSPHPISSCETLFGIREFKPFFDANAVDVAIVDTIWNGVWQSMKIAAFADAHDINVAPHNFYGHLCTMINANFAAAVPNLRIMETDIDRLAWEDELFTHAPEYQNGELIIPDRPGWGTDPVEEAILAHPPKVMGGLLQYKRSEGHHHHHH | soluble
23 | MGHHHHHHSHMAICQFFLQGRCRFGDRCWNEHPGARGAGGGRQQPQQQPSGNNRRGWNTTSQRYSNVIQPSSFSKSTPWGGSRDQEKPYFSSFDSGASTNRKEGFGLSENPFASLSPDEQKDEKKLLEGIVKDMEVWESSGQWMFSVYSPVKKKPNISGFTDISPEELRLEYHNFLTSNNLQSYLNSVQRLINQWRNRVNELKSLNISTKVALKCLWKIYTHLSPKIYGPDCAL | not soluble
24 | DAAVTPEERHLSKMQQNGYENPTYKFFEQMQNSGPSSGIEGRGSSGSSGSSGSSGPTPKTELVQKFRVQYLGMLPVDRPVGMDTLNSAIENLMTSSSKEDWPSVNMNVADATVTVISEKNEEEVLVECRVRFLSFMGVGKDVHTFAFIMDTGNQRFECHVFWCEPNAANVSEAVQAAC | soluble
25 | MQVRIERAERIESELEEHVGDQTFVEESRFLEEDEQREGEILDQIIFVDGKRRSFVRITTDEGITGIFAELCVGAVIWDREGGTKTLFSPDKPPVKERVLGFSQSFQEEGYEEVGGILFKVVKEGKDAMQSIDLYMRSLEIEEVRKHMDKNILIVKDGPAARELPFEENVGPIGLVKNIGVTELSKEDFKKLRFLKKGKRSKMFVSSRETPLKKVGAYVKLIDGEGIRGLVRLETYVKDDNQIPYIRKVFDDLAKTLPHLTADLPIPRLPENILPIQFLEENLSYYLTDKNYMNTRLFAYIGR | not soluble
